Assay results as given in patent US20130266566A1 (AbbVie / Abbott, published 2013).
Changes are numbered by the printed parent chain.

B1: Antibody 16 scFv (scFv)
chain: QVQLVQSGAEVKKPGSSVKVSCKASGGTFSSYAISWVRQAPGQGLEWMGGIIPTFGTANYAQKFQGRVTITADESTSTAYMELSSLRSEDTAVYYCAREKRQWLEGHFDYWGRGTLVTVSSDIQMTQSPSTLSASVGDRVTITCRASESIYHSLAWYQQKPGKAPKLLIYKASSLASGVPSRFSGSRSGTEFTLTISSLQPDDFATYYCQQYSNYPLTFGGGTKVEIK
B2: Antibody 01 scFv (scFv)
chain: B1 chain with T54I, S149G, H152R, R187G
B3: Antibody 15 scFv (scFv)
chain: QVQLQQSGAEVKKPGSSVKVSCKASGGTFSSYAISWVRQAPGQGLEWMGGIIPTFGTANYAQKFQGRVTITADESTSTAYMELSGLRSEDTAVYYCAREKRQWLEGHFDYWGRGTPVTVSSDIQMAQSPSFLSASIGDRVTITCRASEGIYHNLAWYQQKPGKAPKLLIYRASSLASGAPSRFSGSGSGTDFTLTISSLQPDDFATYYCQQYSNYPLTFGGGTKLEIR
B4: Antibody 20 IgG1, not germlined (antibody, V domains shown)
VH: QVQLQQSGAEVKKPGSSVKVSCKASGGTFSSYAISWVRQAPGQGLEWMGGIIPTFGTANYAQKFQGRVTITADESTSTAYMELSSLRSEDTAVYYCAREKRQWLEGHFDYWGRGTLVTVSS
VL: DIQMTQSPSTLSASVGDRVTITCRASEGIYHELAWYQQKPGKAPKLLIYRASSLASGVPSRFSGSRSGTEFTLTISSLQPDDFATYYCQQYSDYPLTFGGGTKVEIK
notes: IgG1; also called Ab 20
B5: Antibody 14 scFv (scFv)
chain: B3 chain with P116L, A126T, L194F, R228K
B6: Antibody 20 scFv (scFv)
chain: B1 chain with V5Q, S149G, S153E, K171R, N214D
B7: Antibody 27 scFv (scFv)
chain: B3 chain with T28A, A126T, R228K
B8: Antibody 09 scFv (scFv)
chain: B3 chain with T54A, G56D, A126T, R145Q, R228K
B9: Antibody 27 IgG1, not germlined (antibody, V domains shown)
VH: B4 VH with T28A, S85G, L116P
VL: B4 VL with T10F, V15I, E32N, V58A, R66G, E70D, D93N, V104L
notes: IgG1; also called Ab 27
B10: Antibody 16 IgG1, not germlined (antibody, V domains shown)
VH: B4 VH with Q5V
VL: B4 VL with G28S, E32S, R50K, D93N
notes: IgG1; also called Ab 16
B11: Antibody 02 IgG4, not germlined (antibody, V domains shown)
VH: B4 VH with Q5V
VL: B4 VL with E32S, R50K, R66G
notes: IgG4; also called Ab 02
B12: Antibody 01 IgG4, not germlined (antibody, V domains shown)
VH: B4 VH with Q5V, T54I
VL: B4 VL with H31R, E32S, R50K, R66G, D93N
notes: IgG4; also called Ab 01

target: T1, active human PAI-1, recombinant, wild-type, non-glycosylated (E. coli) (human, UniProt P05121 24-402); test: cell-based or functional assay

Binder | IC50, human chromogenic assay (FIG. 2a)
B1 | 3.6 nM

target: T2, cynomolgus PAI-1 (cynomolgus, UniProt P05121 24-402 (human entry), limits assumed); test: cell-based or functional assay

Binder | IC50, cyno chromogenic assay (FIG. 2b)
B1 | 0.8 nM

target: T1, active human PAI-1, recombinant, …; test: cell-based or functional assay; remark: another data set of the same source

Binder | Chromogenic (IC50 in nM) human
B2 | 3.4 nM
B3 | 7.2 nM

target: T2, cynomolgus PAI-1; test: cell-based or functional assay; remark: another data set of the same source

Binder | Chromogenic IC50 ratio cyno/human | Chromogenic (IC50 in nM) cyno
B4 | 0.5 fold | 
B2 | 0.4 fold | 1.2 nM
B5 |  | 0.8 nM
B6 |  | 1.3 nM
B7 |  | 2.2 nM
B8 |  | 0.7 nM
B3 | 0.3 fold | 2.2 nM

target: T3, rat PAI-1 (rat, UniProt P20961 24-402); test: cell-based or functional assay
T3 sequence: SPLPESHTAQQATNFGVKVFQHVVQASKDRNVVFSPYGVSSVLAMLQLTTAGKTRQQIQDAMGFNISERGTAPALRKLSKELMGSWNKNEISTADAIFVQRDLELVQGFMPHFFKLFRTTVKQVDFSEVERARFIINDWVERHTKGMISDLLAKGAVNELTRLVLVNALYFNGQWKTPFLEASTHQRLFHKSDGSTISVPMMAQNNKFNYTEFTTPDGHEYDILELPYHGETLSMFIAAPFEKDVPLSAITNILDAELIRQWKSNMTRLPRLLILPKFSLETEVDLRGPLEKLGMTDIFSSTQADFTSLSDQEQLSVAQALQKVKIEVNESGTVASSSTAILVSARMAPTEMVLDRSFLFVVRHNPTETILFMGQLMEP

Binder | Chromogenic IC50 ratio rat/human | Chromogenic (IC50 in nM) rat
B4 | 1.8 fold | 
B9 | 5.4 fold | 
B2 | 60.5 fold | 208 nM
B1 |  | 5.6 nM
B5 |  | 23.1 nM
B7 |  | 49.8 nM
B8 |  | 29.7 nM
B3 | 8.9 fold | 64.2 nM

target: T4, mouse PAI-1 (mouse, UniProt P22777 24-401); test: cell-based or functional assay
T4 sequence: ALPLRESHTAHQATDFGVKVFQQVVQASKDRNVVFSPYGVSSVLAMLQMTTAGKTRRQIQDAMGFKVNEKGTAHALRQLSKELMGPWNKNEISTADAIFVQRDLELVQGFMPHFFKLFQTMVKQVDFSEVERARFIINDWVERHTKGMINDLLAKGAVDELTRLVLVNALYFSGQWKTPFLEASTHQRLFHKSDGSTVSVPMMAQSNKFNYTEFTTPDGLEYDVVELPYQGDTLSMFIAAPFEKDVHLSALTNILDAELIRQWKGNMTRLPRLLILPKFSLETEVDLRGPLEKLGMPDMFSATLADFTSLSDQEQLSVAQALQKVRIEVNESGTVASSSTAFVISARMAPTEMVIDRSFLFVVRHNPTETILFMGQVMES

Binder | Chromogenic IC50 ratio mouse/human | Chromogenic (IC50 in nM) mouse
B4 | 0.9 fold | 
B9 | 3.3 fold | 
B2 | 8.2 fold | 28.3 nM
B1 |  | 4.3 nM
B6 |  | 4.9 nM
B3 | 9.3 fold | 66.9 nM

target: T1, active human PAI-1, recombinant, …; test: cell-based or functional assay; remark: another data set of the same source

Binder | HT-1080 Exo PAI-1 (IC50 in nM) human
B2 | 23.9 nM
B1 | 16.9 nM
B5 | 28 nM
B6 | 19.1 nM
B7 | 18.8 nM
B8 | 23 nM
B3 | 36 nM

target: T3, rat PAI-1; test: cell-based or functional assay; remark: another data set of the same source

Binder | HT-1080 Exo PAI-1 (IC50 in nM) rat
B1 | 52.6 nM
B5 | 52 nM
B6 | 42.4 nM
B7 | 33.8 nM
B8 | 52.7 nM
B3 | 57 nM

target: T4, mouse PAI-1; test: cell-based or functional assay; remark: another data set of the same source

Binder | HT-1080 Exo PAI-1 (IC50 in nM) mouse
B2 | 34.5 nM
B1 | 17.6 nM
B5 | 22 nM
B6 | 18.1 nM
B7 | 16.4 nM
B8 | 21 nM
B3 | 37 nM

Target: T5, rabbit PAI-1 (rabbit)
T5 chain: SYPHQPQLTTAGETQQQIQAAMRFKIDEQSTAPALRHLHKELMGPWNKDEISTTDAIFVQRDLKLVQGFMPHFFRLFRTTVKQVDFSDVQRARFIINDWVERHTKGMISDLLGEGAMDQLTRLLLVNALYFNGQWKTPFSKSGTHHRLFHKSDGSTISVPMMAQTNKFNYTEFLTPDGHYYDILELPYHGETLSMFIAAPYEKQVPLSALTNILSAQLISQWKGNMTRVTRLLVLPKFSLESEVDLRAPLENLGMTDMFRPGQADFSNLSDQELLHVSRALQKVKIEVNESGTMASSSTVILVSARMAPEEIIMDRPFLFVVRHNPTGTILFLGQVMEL
Test: competition ELISA, IgG on plate, biotinylated active human PAI-1 against titrated unlabelled competitor

Binder | IC50 ratio rabbit/wt
B4 | 9.1 fold
B10 | 7.9 fold
B11 | 4.8 fold
B12 | 9 fold
B9 | 85 fold

target: T6, latent human PAI-1 (human, UniProt P05121 24-402); test: as above
T6 construct: also called latent PAI-1

Binder | IC50 ratio latent/wt
B4 | 7.5 fold
B9 | 6.8 fold

target: T3, rat PAI-1; test: as above

Binder | IC50 ratio rat/wt
B4 | 2.3 fold
B9 | 1.2 fold

target: T4, mouse PAI-1; test: as above

Binder | IC50 ratio mouse/wt
B4 | 7.6 fold
B9 | 6.1 fold
